{"source": "patent US20150087584A1", "about": "(COUNCIL OF SCIENTIFIC AND INDUSTRIAL RESEARCH, published 2015)", "binders": {"B1": {"name": "inhibitory repeat domain IRD-9 of Capsicum annuum Pin-II proteinase inhibitors (CanPIs) (other)", "chain": "QPICTNSSAGLKGCNYYNADGTFICEGESDPNHPKACPKNCDPNIAYSLC"}, "B2": {"name": "inhibitory repeat domain IRD-12 of Capsicum annuum Pin-II proteinase inhibitors (CanPIs) (other)", "chain": "NRLCTNCCAGRKGCNYYSADGTFICEGESDPNNPKACPRNCDPNIAYSLC"}}, "molecular_target": "bovine trypsin (bovine, UniProt P00760 24-246)", "sequence (P00760 24-246)": "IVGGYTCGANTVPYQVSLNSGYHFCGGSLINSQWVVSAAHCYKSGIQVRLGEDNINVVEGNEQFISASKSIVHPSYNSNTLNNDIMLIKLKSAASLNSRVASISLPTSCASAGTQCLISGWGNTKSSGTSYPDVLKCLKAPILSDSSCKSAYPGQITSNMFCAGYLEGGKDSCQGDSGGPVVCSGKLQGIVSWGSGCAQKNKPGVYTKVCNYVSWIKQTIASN", "assay": "cell-based or functional assay"}
{"binder": "B1", "values": [{"measurement": "IC50 of inhibition of bovine trypsin activity (BApNA substrate)", "result": "~2.2", "unit": "µM"}]}
{"binder": "B2", "values": [{"measurement": "IC50 of inhibition of bovine trypsin activity (BApNA substrate)", "result": "~65", "unit": "µM"}]}
